Assay results reported in patent US20160347802A1.

T1: human DRAXIN, AVEXIS prey or bait protein (human), Q8NBI3
T1 chain: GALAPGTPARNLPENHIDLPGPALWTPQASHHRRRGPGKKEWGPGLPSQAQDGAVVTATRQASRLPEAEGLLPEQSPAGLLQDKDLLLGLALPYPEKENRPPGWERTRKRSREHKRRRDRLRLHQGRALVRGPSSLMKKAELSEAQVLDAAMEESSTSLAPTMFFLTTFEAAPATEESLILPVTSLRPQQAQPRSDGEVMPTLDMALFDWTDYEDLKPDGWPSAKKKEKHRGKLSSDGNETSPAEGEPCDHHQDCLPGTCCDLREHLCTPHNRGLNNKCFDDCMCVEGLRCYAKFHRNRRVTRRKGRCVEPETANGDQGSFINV


Columns and labels:
[1] = molecular target: biotinylated recombinant human DCC (human) (UniProt P43146); assay: AVEXIS, prey on bait DCC; white = No binding
[2] = molecular target: T1, human DRAXIN, AVEXIS prey or bait …; assay: AVEXIS, prey on bait DRAXIN; white = No binding; settings: remark: other sources report otherwise
[3] = molecular target: T1, human DRAXIN, AVEXIS prey or bait …; assay: AVEXIS, prey on bait hDRAXIN, lower value; white = No binding; settings: remark: other sources report otherwise
[4] = molecular target: T1, human DRAXIN, AVEXIS prey or bait …; assay: AVEXIS, prey on bait hDRAXIN, upper value; white = No binding; settings: remark: other sources report otherwise

A486nm [1] | Binder | further results
0.065 | human Netrin-G2, AVEXIS protein (ligand, UniProt Q96CW9 18-507, looked up, not shown: small tags and cut ends) DYDICKSWVTTDEGPTWEFYACQPKVMRLKDYVKVKVEPSGITCGDPPERFCSHENPYLCSNECDASNPDLAHPPRLMFDKEEEGLATYWQSITWSRYPSPLEANITLSWNKTVELTDDVVMTFEYGRPTVMVLEKSLDNGRTWQPYQFYAEDCMEAFGMSARRARDMSSSSAHRVLCTEEYSRWAGSKKEKHVRFEVRDRFAIFAGPDLRNMDNLYTRLESAKGLKEFFTLTDLRMRLLRPALGGTYVQRENLYKYFYAISNIEVIGRCKCNLHANLCSMREGSLQCECEHNTTGPDCGKCKKNFRTRSWRAGSYLPLPHGSPNACATAGSFGNCECYGHSNRCSYIDFLNVVTCVSCKHNTRGQHCQHCRLGYYRNGSAELDDENVCIECNCNQIGSVHDRCNETGFCECREGAAGPKCDDCLPTHYWRQGCYPNVCDDDQLLCQNGGTCLQNQRCACPRGYTGVRCEQPRCDPADDDGGLDCDRAPG | 
0.072 | human DRAXIN, AVEXIS prey or bait protein (ligand) GALAPGTPARNLPENHIDLPGPALWTPQASHHRRRGPGKKEWGPGLPSQAQDGAVVTATRQASRLPEAEGLLPEQSPAGLLQDKDLLLGLALPYPEKENRPPGWERTRKRSREHKRRRDRLRLHQGRALVRGPSSLMKKAELSEAQVLDAAMEESSTSLAPTMFFLTTFEAAPATEESLILPVTSLRPQQAQPRSDGEVMPTLDMALFDWTDYEDLKPDGWPSAKKKEKHRGKLSSDGNETSPAEGEPCDHHQDCLPGTCCDLREHLCTPHNRGLNNKCFDDCMCVEGLRCYAKFHRNRRVTRRKGRCVEPETANGDQGSFINV | 

Continued, binder first:

Binder | A486nm [1] | further results
human Netrin-G1, AVEXIS protein (ligand, UniProt Q9Y2I2 29-510, looked up, not shown: small tags and cut ends) HYDLCKTQIYTEEGKVWDYMACQPESTDMTKYLKVKLDPPDITCGDPPETFCAMGNPYMCNNECDASTPELAHPPELMFDFEGRHPSTFWQSATWKEYPKPLQVNITLSWSKTIELTDNIVITFESGRPDQMILEKSLDYGRTWQPYQYYATDCLDAFHMDPKSVKDLSQHTVLEIICTEEYSTGYTTNSKIIHFEIKDRFAFFAGPRLRNMASLYGQLDTTKKLRDFFTVTDLRIRLLRPAVGEIFVDELHLARYFYAISDIKVRGRCKCNLHATVCVYDNSKLTCECEHNTTGPDCGKCKKNYQGRPWSPGSYLPIPKGTANTCIPSISSIGNCECFGHSNRCSYIDLLNTVICVSCKHNTRGQHCELCRLGYFRNASAQLDDENVCIECYCNPLGSIHDRCNGSGFCECKTGTTGPKCDECLPGNSWHYGCQPNVCDNELLHCQNGGTCHNNVRCLCPAAYTGILCEKLRCEEAGSCGS | 0.063 | 
human DRAXIN, AVEXIS prey or bait protein, Q8NBI3 26-349 (ligand) GALAPGTPARNLPENHIDLPGPALWTPQASHHRRRGPGKKEWGPGLPSQAQDGAVVTATRQASRLPEAEGLLPEQSPAGLLQDKDLLLGLALPYPEKENRPPGWERTRKRSREHKRRRDRLRLHQGRALVRGPSSLMKKAELSEAQVLDAAMEESSTSLAPTMFFLTTFEAAPATEESLILPVTSLRPQQAQPRSDGEVMPTLDMALFDWTDYEDLKPDGWPSAKKKEKHRGKLSSDGNETSPAEGEPCDHHQDCLPGTCCDLREHLCTPHNRGLNNKCFDDCMCVEGLRCYAKFHRNRRVTRRKGRCVEPETANGDQGSFINV |  | A486nm [2]: 0.062; A486nm [3]: 0.057; A486nm [4]: 0.054
human Netrin-4, AVEXIS protein (ligand, UniProt Q9HB63 19-628, looked up, not shown: small tags and cut ends) GLSGVAGVSSRCEKACNPRMGNLALGRKLWADTTCGQNATELYCFYSENTDLTCRQPKCDKCNAAYPHLAHLPSAMADSSFRFPRTWWQSAEDVHREKIQLDLEAEFYFTHLIVMFKSPRPAAMVLDRSQDFGKTWKPYKYFATNCSATFGLEDDVVKKGAICTSKYSSPFPCTGGEVIFKALSPPYDTENPYSAKVQEQLKITNLRVQLLKRQSCPCQRNDLNEEPQHFTHYAIYDFIVKGSCFCNGHADQCIPVHGFRPVKAPGTFHMVHGKCMCKHNTAGSHCQHCAPLYNDRPWEAADGKTGAPNECRTCKCNGHADTCHFDVNVWEASGNRSGGVCDDCQHNTEGQYCQRCKPGFYRDLRRPFSAPDACKPCSCHPVGSAVLPANSVTFCDPSNGDCPCKPGVAGRRCDRCMVGYWGFGDYGCRPCDCAGSCDPITGDCISSHTDIDWYHEVPDFRPVHNKSEPAWEWEDAQGFSALLHSGKCECKEQTLGNAKAFCGMKYSYVLKIKILSAHDKGTHVEVNVKIKKVLKSTKLKIFRGKRTLYPESWTDRGCTCPILNPGLEYLVAGHEDIRTGKLIVNMKSFVQHWKPSLGRKVMDILKRECK | 0.065 | 
EVMPTLDMALFDWTDYEDLKP (peptide, not shown: small tags and cut ends) [human DRAXIN 21 amino acid Netrin binding fragment, AVEXIS prey or bait protein] | 0.06 | 
